Reference: patent publication US20160208274

Tested on: fibrin (formed in the agarose plate from fibrinogen and thrombin)

With “recombinant Desmodus rotundus salivary plasminogen activator alpha2 (DSPAα2) from transgenic T1 tobacco seeds, with C-terminal 6xHis tag and KDEL” the fibrin degradation was “recombinant proteins t-PA, DSPAα1 and DSPAα2 produced in this manner can degrade fibrin”.
